# According to paper PMC2787876 (Journal of molecular biology, 2009):
# Residue numbers refer to the chain shown, from its start.
# B1: arrestin1 2A-3A-h3A (natural protein, bovine, UniProt P08168 1-404, looked up)
# chain: MKANKPAPNHVIFKKISRDKSVTIYLGKRDYIDHVERVEPVDGAVAVDPELVKGKRVYVSLTCAFRYGQEDIDVMGLSFRRDLYFSQVQVFPPVGASGATTRAQESAIKKAGANTYPFLLTFPDYLPCSVMLQPAPQDVGKSCGVDFEIKAFATHSTDVEEDKIPKKSSVRLLIRKVQHAPRDMGPQPRAEASWQFFMSDKPLRLAVSLSKEIYYHGEPIPVTVAVTNSTEKTVKKIKVLVEQVTNVVLYSSDYYIKTVAAEEAQEKVPPNSSLTKTLTLVPLLANNRERRGIALDGKIKHEDTNLASSTIIKEGIDKTVMGILVSYQIKVKLTVSGLLGELTSSEVATEVPFRLMHPQPEDPDTAKESFQDENAAAEEFARQNLKDAGEYKEEKTDQEAAMDE
# modifications: [3H]leucine and [14C]leucine incorporated
# B2: arrestin1 h3A on the background of the 3A mutation (natural protein, bovine, UniProt P08168 1-404, looked up)
# chain: B1 chain with A44V, A46L
# modifications: [3H]leucine and [14C]leucine incorporated
# Target: light activated unphosphorylated rhodopsin (UniProt P02699 1-348, retinal chromophore, light-activated)
# Assay: dissociation of the complex after dilution
# Sequence of light activated unphosphorylated rhodopsin (P02699 whole entry): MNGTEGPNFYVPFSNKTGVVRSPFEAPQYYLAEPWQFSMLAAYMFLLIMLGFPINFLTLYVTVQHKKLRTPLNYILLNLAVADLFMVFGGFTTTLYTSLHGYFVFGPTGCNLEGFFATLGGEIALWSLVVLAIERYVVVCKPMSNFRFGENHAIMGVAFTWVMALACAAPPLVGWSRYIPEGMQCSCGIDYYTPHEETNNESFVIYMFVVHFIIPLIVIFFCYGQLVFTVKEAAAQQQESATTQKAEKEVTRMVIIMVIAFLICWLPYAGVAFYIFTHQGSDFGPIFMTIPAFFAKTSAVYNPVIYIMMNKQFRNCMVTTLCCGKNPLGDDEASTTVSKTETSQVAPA
row,Binder,half-life of the complex (t1/2) [min]
1,B1,72 ± 7
2,B2,77 ± 9
